Measurements published in publication PMC4558169, “Anchoring of both PKA-RIIα and 14-3-3θ regulates retinoic acid induced 16 mediated phosphorylation of heat shock protein 70” (Oncotarget, 2015).

Assays:
14-3-3θ = 14-3-3θ (UniProt P27348); assay: anti-Flag co-IP, 14-3-3θ blot; settings: reference: wild type; sites S325
[1] = molecular target: T1, Flag-tagged retinoic acid induced 16 (RAI16), full length (UniProt Q86V87 1-743); assay: co-IP; Flag-tagged RAI16 or its mutants expressed in HEK293T cells, alone or with Ha-tagged PKA-RIIα; anti-Flag immunoprecipitation, endogenous 14-3-3θ detected with anti-14-3-3θ antibody; cells untreated, treated with forskolin or with forskolin + PKImyr; settings: partners not purified
T1 construct: 743 residues by the printed fragment limits; also called Flag-RAI16; Fam160B2; source: HEK293T, transfected (pcDNA3.1), in lysate
T1 sequence (Q86V87 whole entry, the tested form may be a part): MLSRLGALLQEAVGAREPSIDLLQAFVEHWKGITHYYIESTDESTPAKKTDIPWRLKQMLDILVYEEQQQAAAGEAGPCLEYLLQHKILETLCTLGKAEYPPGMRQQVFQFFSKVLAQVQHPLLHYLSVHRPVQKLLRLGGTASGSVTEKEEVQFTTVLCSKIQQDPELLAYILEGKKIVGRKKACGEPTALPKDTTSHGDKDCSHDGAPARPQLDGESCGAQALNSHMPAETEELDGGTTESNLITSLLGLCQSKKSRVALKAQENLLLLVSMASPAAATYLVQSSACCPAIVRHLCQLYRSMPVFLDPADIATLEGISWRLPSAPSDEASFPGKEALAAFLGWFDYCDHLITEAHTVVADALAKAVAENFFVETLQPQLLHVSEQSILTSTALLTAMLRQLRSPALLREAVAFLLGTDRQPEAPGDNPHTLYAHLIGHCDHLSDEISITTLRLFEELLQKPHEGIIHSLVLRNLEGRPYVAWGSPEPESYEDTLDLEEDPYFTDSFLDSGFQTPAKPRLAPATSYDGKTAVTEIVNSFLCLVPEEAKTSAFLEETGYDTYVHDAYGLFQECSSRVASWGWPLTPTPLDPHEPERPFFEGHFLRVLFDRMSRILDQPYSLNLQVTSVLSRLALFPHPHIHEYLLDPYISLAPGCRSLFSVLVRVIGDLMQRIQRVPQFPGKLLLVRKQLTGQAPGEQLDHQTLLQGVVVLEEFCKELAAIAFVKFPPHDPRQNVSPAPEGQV

Molecule	binding against the reference (14-3-3θ)	fold change of co-precipitated 14-3-3θ with forskolin against untreated cells [1] [fold]
RAI16 (retinoic acid induced 16) (from UniProt Q86V87) S325A	lost	–
endogenous 14-3-3θ (natural protein, human (endogenous in HEK293T), UniProt P27348 1-245, looked up, 14-3-3 protein theta, endogenous in HEK293T cells; source: endogenous, HEK293T lysate) MEKTELIQKAKLAEQAERYDDMATCMKAVTEQGAELSNEERNLLSVAYKNVVGGRRSAWRVISSIEQKTDTSDKKLQLIKDYREKVESELRSICTTVLELLDKYLIANATNPESKVFYLKMKGDYFRYLAEVACGDDRKQTIDNSQGAYQEAFDISKKEMQPTHPIRLGLALNFSVFYYEILNNPELACTLAKTAFDEAIAELDTLNEDSYKDSTLIMQLLRDNLTLWTSDSAGEECDAAEGAEN	–	3.25
